Assay results taken from US20160108107A1 (INSTITUT NATIONAL DE LA RECHERCHE AGRONOMIQUE INRA, published 2016).

Experiments:
Assay in all cases: indirect ELISA, protein coated, culture supernatant at 1/50
[1] = target: T1, deamidated low-molecular weight glutenin
T1 construct: also called Glut; LMW-D; deam; LMW
Method: (§1) 100 μl of proteins at 1 μg/ml in 50 mM carbonate buffer, pH 9.6, are incubated overnight at 4° C. at the bottom of a 96-well, bottom, plate (Nunc, Maxisorb). After 3 washes with PBS-0.05% Tween 20, an incubation with PBS-2% (w/v) milk is carried out. The PEE 14C7 monoclonal antibody (100 μl of various dilutions of antibody in PBS-0.1% (w/v) milk) is incubated for 1 h at ambient temperature. After washes with PBS-0.05% Tween 20, 100 μl of the peroxidase-coupled goat anti-mouse IgG secondary antibody (ref: 170-6516, Bio-Rad) diluted to 1/3000 is incubated for 1 h at ambient temperature under the same conditions as the primary antibody. After 3 washes, the OPD (0-phenylenediamine, ref: P-1526, Sigma) substrate is incubated for 30 min in the dark. The reaction is stopped by adding 50 μl of H2SO₄ 4N. The optical densities are read at dual wavelength (490 nm for measuring the hydrolysis of the substrate and 630 nm for eliminating the background noise) on a plate spectrometer (Bioteck, E1x808-1).
(§2) The percentages of reactivity of the antibody with respect to each protein are determined as described in Tranquet et al. (2012). In the present case, the percentages are determined at the 1/50 dilution of the culture supernatant (i.e. the strongest dilution which makes it possible to obtain the strongest absorbence on the best-recognized protein—deamidated gamma-gliadins). The percentage recognition of a protein X is obtained by calculating the Protein X absorbence/deamidated gamma-gliadin absorbence ratio.

[2] = target: T2, deamidated ω-2 gliadin
T2 construct: also called ω2-D; deam. ω2
Method: as §1, §2

[3] = target: T3, deamidated ω-5 gliadin
T3 construct: also called ω5-D; deam. ω5
Method: as §1, §2

[4] = target: T4, native ω-2 gliadin
T4 construct: also called non-deamidated ω-2 gliadin
Method: as §1, §2

[5] = target: T5, native β-gliadin
T5 construct: also called non-deamidated β-gliadin
Method: as §1, §2

[6] = target: T6, native γ-gliadin
T6 construct: also called non-deamidated γ-gliadin
Method: as §1, §2

[7] = target: T7, deamidated α-gliadin
T7 construct: also called α-D; deam. α
Method: as §1, §2

[8] = target: T8, native low-molecular-weight glutenin
T8 construct: also called LMW
Method: as §1, §2

[9] = target: T9, native high-molecular-weight glutenin
T9 construct: also called HMW
Method: as §1, §2

[10] = target: T10, native α-gliadin
T10 construct: also called non-deamidated α-gliadin
Method: as §1, §2

[11] = target: non-deamidated native ω-5 gliadin
Method: as §1, §2

percentage of reactivity (Protein X absorbence/deamidated gamma-gliadin absorbence) [1]: 97% | percentage of reactivity (Protein X absorbence/deamidated gamma-gliadin absorbence) [2]: 94% | percentage of reactivity (Protein X absorbence/deamidated gamma-gliadin absorbence) [3]: 99% | percentage of reactivity (Protein X absorbence/deamidated gamma-gliadin absorbence) [4]: 39% | percentage of reactivity (Protein X absorbence/deamidated gamma-gliadin absorbence) [5]: 4% | percentage of reactivity (Protein X absorbence/deamidated gamma-gliadin absorbence) [6]: 1% | percentage of reactivity (Protein X absorbence/deamidated gamma-gliadin absorbence) [7]: 76% | percentage of reactivity (Protein X absorbence/deamidated gamma-gliadin absorbence) [8]: 26% | percentage of reactivity (Protein X absorbence/deamidated gamma-gliadin absorbence) [9]: 2% | percentage of reactivity (Protein X absorbence/deamidated gamma-gliadin absorbence) [10]: 1% | percentage of reactivity (Protein X absorbence/deamidated gamma-gliadin absorbence) [11]: 7%
B1: PEE 14C7 monoclonal antibody (antibody, IgG1, V domains shown)
VH: DVQLQESGPDLVKPSQSLSLTCTVTGYSITSGYSWHWIRQFPGNKLEWMGYIHYSGSTNYNPSLKSRISITRDTSKNQFFLQLNSVTTEDTATYYCASGYFDVWGAGTTVTVSS
VL: DVVMTQTPLSLPVSLGDQASISCRSSQSLVHSNGNTYLHWYLQKPGQSPKLLIYKVSNRFSGVPDRFSGSGSGTDFTLKISRVEAEDLGVYFCSQSTLVPWTFGGGTKLEIK
notes: Used in the assays as hybridoma culture supernatant; also called PEE 14C7 antibody; monoclonal antibody produced by the PEE 14C7 hybridoma
